For one sequence, binding results are on record in publication PMC11237755.

The target in this data set is T1, TtdV-His6;TtdW-His6 (Salmonella enterica serovar Typhimurium IR715 (ATCC14028 NalR);Salmonella enterica serovar Typhimurium IR715 (ATCC14028 NalR)) (UniProt Q8ZLP8+Q8ZLP7).
T1 sequence 1: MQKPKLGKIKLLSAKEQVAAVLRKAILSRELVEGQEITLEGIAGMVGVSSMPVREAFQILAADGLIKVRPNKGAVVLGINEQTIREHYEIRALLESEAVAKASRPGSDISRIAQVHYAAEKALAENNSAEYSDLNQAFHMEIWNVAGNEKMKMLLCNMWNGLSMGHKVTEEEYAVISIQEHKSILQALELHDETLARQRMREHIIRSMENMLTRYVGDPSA
T1 sequence 2: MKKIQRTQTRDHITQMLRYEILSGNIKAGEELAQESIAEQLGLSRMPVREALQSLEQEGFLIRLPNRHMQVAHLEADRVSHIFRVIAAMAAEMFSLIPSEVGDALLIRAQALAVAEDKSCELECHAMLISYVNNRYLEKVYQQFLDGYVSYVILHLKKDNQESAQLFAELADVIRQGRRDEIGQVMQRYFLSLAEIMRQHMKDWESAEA
Put plainly: EMSA. The conditions noted are these: LightShift Chemiluminescent EMSA kit (binding buffer, salt and pH not given), 20 min room temperature; 20 fmol probe, 6% 0.5x TBE gel (TtdV/TtdW); 50 fmol …. For orientation: In EMSA bound probe runs differently from free probe, usually more slowly.

As to “CGTATGCTGACCCGCTATGTTGGTGACCCTTCTGCCTGATCTTTTCGCCTGCGTGAGCATCGCAGGCGCTTCAACCAATTCTTCAATTCTATTAATCACGTCCAGTAACGATCTAACCACGATCTTGATGTAGATCCCACTCCTGCATCTTTCCTGAGAAACGATTTGACTTAGTTTTTGTATGGGAATAATTTCTCCCTGTCAACATTGGATACAATATCATATATCATTGATTGGATAATTATAAATATGGAACCCATTACCCTTACCTTATGTTTATTGGTGTTCGCCC (double strand) [Probe 4]”, the binding result was “binds”.
